Measurements: paper PMC9513677, “Systematic multi‐level analysis of an organelle proteome reveals new peroxisomal functions” (Molecular Systems Biology, 2022)
One block for each binder: values may come before it. Primed or numbered codes have the meaning given here. Where no end group is shown, it is not given here. FITC′ = fluorescein isothiocyanate

Molecular target: T1, Full‐length Saccharomyces cerevisiae Pex5 (purified, for fluorescence anisotropy) (Saccharomyces cerevisiae, UniProt P35056 1-612)
T1 construct: Pex5, peroxisomal targeting factor (PTS1 receptor), Saccharomyces cerevisiae, full length; also called purified yeast Pex5; source: expressed in autoinduction medium, purified (Ni‐NTA, TEV digestion, second Ni‐NTA, gel filtration Superdex 200)
T1 sequence (looked up): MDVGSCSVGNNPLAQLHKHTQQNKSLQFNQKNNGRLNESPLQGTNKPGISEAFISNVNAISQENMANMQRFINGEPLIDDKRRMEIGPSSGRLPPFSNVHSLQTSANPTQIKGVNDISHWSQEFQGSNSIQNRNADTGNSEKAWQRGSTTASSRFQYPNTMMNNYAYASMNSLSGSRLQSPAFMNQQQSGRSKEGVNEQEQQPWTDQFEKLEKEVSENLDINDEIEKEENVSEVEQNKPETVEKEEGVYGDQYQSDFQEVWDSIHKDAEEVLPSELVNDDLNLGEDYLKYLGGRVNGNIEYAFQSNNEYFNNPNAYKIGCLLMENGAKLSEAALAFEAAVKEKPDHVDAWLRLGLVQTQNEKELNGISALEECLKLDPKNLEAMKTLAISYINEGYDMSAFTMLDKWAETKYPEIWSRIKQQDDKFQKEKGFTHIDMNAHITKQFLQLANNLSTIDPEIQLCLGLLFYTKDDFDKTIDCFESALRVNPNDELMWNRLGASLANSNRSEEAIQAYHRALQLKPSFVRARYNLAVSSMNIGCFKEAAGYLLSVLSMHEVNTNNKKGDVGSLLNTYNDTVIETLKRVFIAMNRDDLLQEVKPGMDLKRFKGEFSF
Test: fluorescence polarisation; fluorescence anisotropy; FITC peptide at 10 nM, Pex5 in serial dilution; 50 mM Hepes pH 7.5, 150 mM NaCl; black 96-well plates, excitation/detection 470/530 nm; three independent experiments; binding-saturation model with one binding site
Settings: both partners purified

Kd: 5.5 ± 0.5 µM
B1: FITC-labeled peptide of the carboxyl terminus of Idp3 (known PTS1 motif) (peptide)
peptide: {FITC′}-YEDKKGMCKL
notes: tyrosine added at the N terminal of the Idp3 peptide for concentration determination; not part of Idp3; Idp3, Saccharomyces cerevisiae, carboxyl terminus with the PTS1 motif; also called PTS1 motif from Idp3; source: synthetic peptide (Genscript)

Kd: 9.5 ± 2.9 µM
B2: FITC-labeled peptide of the carboxyl‐terminal 10 amino acids of Yhl045w (Pxp3) (peptide)
peptide: {FITC′}-RKRVLGVAYL
notes: Yhl045w (Pxp3, Peroxisomal protein 3), Saccharomyces cerevisiae, the carboxyl-terminal 10 amino acids; also called Pxp3 motif; Pxp3 targeting peptide; source: synthetic peptide (Genscript)
